This passage reports protein production results from a protein production outcome set (Wang et al. 2014).

A short description of this data set: label from the status in PepcDB records.
As for “MRKKQKLPFDKLAIALMSTSILLNAQSDIKANTVTEDTPAAEQAVETPQPTAVSEEVPSSKETKTPQTPDNAEETVADKANDLALQAPAKTADTPATSKATIRDLNDPSQVKTLQEKAGKGAGTVVAVIDAGFDKNHEAWRLTDKTKARYQSKEDLEKAKKEHGITYGEWVNDKVAYYHDYSKDGKTAVDQEHGTHVSGILSGNAPSETKEPYRLEGAMPEAQLLLMRVEIVNGLADYARNYAQAIRDAVNLGAKVINMSFGNAALAYANLPDETKKAFDYAKSKGVSIVTSAGNDSSFGGKTRLPLADHPDYGVVGTPAAADSTLTVASYSPDKQLTETATVKTADQQDKEMPVLSTNRFEPNKAYDYAYANRGMKEDDFKDVKGKIALIERGDIDFKDKIANAKKAGAVGVLIYDNQDKGFPIELPNVDQMPAAFISRKDGLLLKENPQKTITFNATPKVLPTASGTKLSRFSSWGLTADGNIKPDIAAPGQDILSSVANNKYAKLSGTSMSAPLVAGIMGLLQKQYEIQYPDMTPSERLDLAKKVLMSSATALYDEDEKAYFSPRQQGAGAVDAKKASAATMYVTDKDNTSSKVHLNNVSDKFEVTVTVHNKSDKPQELYYQATVQTDKVDGKHFALAPKALYETSWQKITIPANSSKQVTVPIDASRFSKDLLAQMKNGYFLEGFVRFKQDPKKEELMSIPYIGFRGDFGNLSALEKPIYDSKDGSSYYHEANSDAKDQLDGDGLQFYALKNNFTALTTESNPWTIIKAVKEGVENIEDIESSEITETIFAGTFAKQDDDSHYYIHRHANGKPYAAISPNGDGNRDYVQFQGTFLRNAKNLVAEVLDKEGNVVWTSEVTEQVVKNYNNDLASTLGSTRFEKTRWDGKDKDGKVVANGTYTYRVRYTPISSGAKEQHTDFDVIVDNTTLEVATSATFSTEDRRLTLASKPKTSQPIYRERIAYTYMDEDLPTTEYISPNEDGTFTLPEEAETMEGATVPLKMSDFTYVVEDMAGNITYTPVTKLLEGHSNKPEQDGSDQAPDKKPEAKPEQDGSGQTPDKKPETKPEKDSSGQTPGKTPQKGQPSRTLEKRSSKRALATKASARDQLPTTNDKDTNRLHLLKLVMTTFFFGLVAHIFKTKRQKETKK”, the protein production result is “failed”.

For “MRKSVSRASSIITGLLVMSIGLNSTEYLSIYKLILFNKKTCMKLKTHFVFSIGLLTLASSFFGFSLIISAIISVLGNTLIDRLGHKEISTRYGKIPVRTPLTHTLPRSVFWGLISSMPVIIVLGLAYGMLNTKILTALIDGILVGPSHMLLDVFTENGIYVKRNGKWKRVALAHFSYDSSLINGLAIVLGIIMIFAAMELHH”, the protein production entry is reported as “failed”.

On to “MRKTKTEALKTKEHLMLAALETFYRKGIARTSLNEIAQAAGVTRGALYWHFKNKEDLFDALFQRICDDIENCIAQDAEDAEGGSWAVFRHTLLHFFERLQSNDIYYKFHNILFLKCEHTEQNAAVIAIARKHQAIWREKITAVLTEAVENQDLADDLDKETAVIFIKSTLDGLIWRWFSSCERFDLGKTAPRIIGIMMDNLENHPDLRRK”, for which the protein production result is on record as “not failed”.

For “MRKVTAAVMASTLAFSFLSHAAEVVTSDNWHPGDGATQRSAQNHMFDGISLTEHQRQQMRDLMQQARHEQPPVNVSEMETMHRLVTAEKFDESAVRAQAEKMAQEQVARQVEMARVRNQMYRLLTPEQQAVLNEKHQQRMEQLRDVAQWQKSSSLKLLSSSNSRSQLEHHHHHH”, the protein production entry is on record as “failed”.

Take “MRLALFDLDNTLLGGDSDHAWGDYLYQRGILDAATYKSRNDEFYQDYLAGTLNMTDYLNFTLEILGNTDMAQLQEWHREFMRDCIEPIMLPKALELIAKHREAGDKLVVITATNRFVTAPIVARLGIETLLATECEMVDGRYTGRTTGVPCFREGKVTRLNQWLEDNAFSLEDSYFYSDSMNDLPLLEQVANPVAVDPDARLRAEAEQRGWPVITLRS”: the protein production entry is reported as “failed”.

For the sequence “MRLDHLRLQNFRCYEDAHFDFQPGFNLVVGVNGSGKTSLLLGVAECLIPYGNAMGQGQEILSKEDVRFVIDRHEGRSRFERKFPVFIRADGDIFDLPNWRAVRLLEPWEGGVDPSSLSHLSAVLARNNAGEQIDFPVLAFYRANRRWSSARISAEFAAQQRTSRFDGYANWFDAVADLRDFESWLIARTLERLQDRLDSTPTVEREDELEWVNRAIRLAIPDAHDLRYDLRLQSLLVDMGEGNAVPFHELSDGQRSLIALIADIARRMCVLNPHIGKDVLANTGGIVIIDELDIHLHPAWQRNIAPTLKKAFPKVQFIATSHSPQVIGSLQPGEVILLKNGDSSHPRATYGLDSSTILEEVMGVPQREPEIEVLLDELFSTLENNELEKARLQLDALKKKAPDLPEFAGAEALLKRKELIGRLEHHHHHH”, the protein production result is listed as “not failed”.

“MRLEKGMPLKRQIRLKTAIILPFVLTFLFMILAMAAVQTYRYEQTVKELSSKKLSYLTDSISQRLSDFLNRPFFANQMIAYNVGFHHLYQLNDVSRIEDFIRAAANPIGNNIQQIDVVGFGGVNGEYVGLRRDAPEQYSLMLKDARTDDKLVIYQTATKNDQLRTVIDNYDPRVRPWFAPVAQKPSPQWSSVYTNMDEKQEITLSALSPVFQDKRFIGVMVSDVKLNTFNQFLSELKQRMNADVYVMDKQHRLIAHSGEGSVVSWGTPLSPKGERLFASENRNPIIRSSAEQLDLQGLNVGTFTTYVNQQRYFNQASAFTDQYGLTWYISVSIAEGDLLGSLPENQKTSWAIGLLVSLVGLGLGLMALNRVANPIISTASAARQLANGDWTASMPKPGKIYETSLLVQAFIEMTNSLKASFKALRSQLVYDSLTQLLSREGLVEHCHQIPQLNGGLILIGIDKFRDINDSLGHHQADQLLVAIAQRLKVTFPEPALIARIGGDEFAIYLPDVNQQDDLKSVATDILKLFASPFSMPSDNIAVNVSIGIVYLEEPNMTVWLRNGSIALSNAKAEHTHISFYSPEMANASRKRMLMVTQIKLALDNQEFVPFYQPIVDLNSGEVLGAEALARWISPEFGLIPPMDFIPIAEESGLINAIGEQILRQACADTVRGIAENKWPSTFHMHVNLSVNQLSHPDFIAQLHSVLDESGLQPTNLTLEITESRIVDNDPVILHNMLELKKARIHIAIDDFGTGYSSLAYLHKLPFDCLKIDREFVSQLNAYNIENSVVAAIVNMTRGFKVELVAEGIETQEQVDLLNQLGCPRGQGFLFSKPMAYQDWPTDLVNMKQS”: the protein production result is given as “failed”.

As for “MRLIRSVLCSSSAGFGQGFCSPSLRRHLSARFPRGHGNALANFSSCARSRVHAYSSASSATSVGVPVAKMRFIDIGANLLDEMYTGQYNDKPYHPPDLSAVLERAWAAGLEKLMITAGSLKEARAALELAKTDERLYCTVGCHPTRCKEFEDHPGGPEAYLQELLEVLKEGQALGKVVAVGECGLVATDYERLHFCDADTQKKYFEAQFRLAKESGLPMFLHLRAAADDFLDITGRHLGDFPRGGVVHSFDGTAEEAARVLAVPQLAIGINGCSLKTDDNLAVVGGLPLERIMLETDCPWCEIRPTHAGRKHVSAEALAGVTGAKDRKKFMPGCQVKSRNEPANIRQVLEVVAGVKGRTDLEAVADVIFGNTERMFFPTA”, the protein production result is given as “failed”.

Turning to “MRLLAILILCILVAACDRQAATEELTEARSAFANREWNDAERLLEGYLRRNPEGAQRWEAWNLLVEVAHRVRNDERATVELLETMYLENGSNPERAYDILTRLGELLEAGRDFRRAAEVWPRVLELPGLTPDTRALVSRRLARILVMQRRFPEAEERLKACLDTEGLSTEGRAGCLYDLADLNVASEHLDVAVDLATTLVGLEGLTPELRSQAGFLLADALEQRGRFAEALERFEALRGVYPNDMVIDTRVRHLKGRLGRK”, the protein production entry was “failed”.

Consider “MRLLAKIICLMLWAICVAEDCNELPPRRNTEILTGSWSDQTYPEGTQAIYKCRPGYRSLGNVIMVCRKGEWVALNPLRKCQKRPCGHPGDTPFGTFTLTGGNVFEYGVKAVYTCNEGYQLLGEINYRECDTDGWTNDIPICEVVKCLPVTAPENGKIVSSAMEPDREYHFGQAVRFVCNSGYKIEGDEEMHCSDDGFWSKEKPKCVEISCKSPDVINGSPISQKIIYKENERFQYKCNMGYEYSERGDAVCTESGWRPLPSCEEKSCDNPYIPNGDYSPLRIKHRTGDEITYQCRNGFYPATRGNTAKCTSTGWIPAPRCTLKPCDYPDIKHGGLYHENMRRPYFPVAVGKYYSYYCDEHFETPSGSYWDHIHCTQDGWSPAVPCLRKCYFPYLENGYNQNYGRKFVQGKSIDVACHPGYALPKAQTTVTCMENGWSPTPRCIRVKTCSKSSIDIENGFISESQYTYALKEKAKYQCKLGYVTADGETSGSITCGKDGWSAQPTCIKSCDIPVFMNARTKNDFTWFKLNDTLDYECHDGYESNTGSTTGSIVCGYNGWSDLPICYERECELPKIDVHLVPDRKKDQYKVGEVLKFSCKPGFTIVGPNSVQCYHFGLSPDLPICKEQVQSCGPPPELLNGNVKEKTKEEYGHSEVVEYYCNPRFLMKGPNKIQCVDGEWTTLPVCIVEESTCGDIPELEHGWAQLSSPPYYYGDSVEFNCSESFTMIGHRSITCIHGVWTQLPQCVAIDKLKKCKSSNLIILEEHLKNKKEFDHNSNIRYRCRGKEGWIHTVCINGRWDPEVNCSMAQIQLCPPPPQIPNSHNMTTTLNYRDGEKVSVLCQENYLIQEGEEITCKDGRWQSIPLCVEKIPCSQPPQIEHGTINSSRSSQESYAHGTKLSYTCEGGFRISEENETTCYMGKWSSPPQCEGLPCKSPPEISHGVVAHMSDSYQYGEEVTYKCFEGFGIDGPAIAKCLGEKWSHPPSCIKTDCLSLPSFENAIPMGEKKDVYKAGEQVTYTCATYYKMDGASNVTCINSRWTGRPTCRDTSCVNPPTVQNAYIVSRQMSKYPSGERVRYQCRSPYEMFGDEEVMCLNGNWTEPPQCKDSTGKCGPPPPIDNGDITSFPLSVYAPASSVEYQCQNLYQLEGNKRITCRNGQWSEPPKCLHPCVISREIMENYNIALRWTAKQKLYSRTGESVEFVCKRGYRLSSRSHTLRTTCWDGKLEYPTCAKR”, for which the protein production result was “failed”.

With “MRLLFSFSCRRRWRERERLRRMREIKMIKLPHKKPIIFFCQLFLIATLIIACHQTTIHTSTNTCTPNYNPNQDYFPNKIKITHARGLAVEYHKHYKVVTIKNPWQNAKTQFQYVLVQCGTPTPQGFKQAQVITVPIHSIVSLSTTHLPHLAKLGVVDKLIGISNSKQVNTPDVVERIKAGKITQVGNNSNVDIERLLELNPDLVTTFGTGNSQTDSYSKLTEAGLKVGINAEYMEDTPLGRSEWLKFTALFFNQEEKAEKIFAEITDKYEQVAQKVKSVKNRPTVFVGFNFKGTWFMPGGNSYVAKYLADAGGDYLWSNEQSAGSLPLSFEVVLERATNADYWLNFSQSWQSLKDLLAEDNRYADFKSVKIGNLYNNNARVNESGGNDYWEGGISNPDIVLSDLIRILHPEILPNHQLFYYHKILK”, the protein production result is given as “failed”.

For “MRLLVAFAVIYFISISPVCAENTASTINIPTPAIESPLASKSLLLDISLIGQEKLVTVGQHGHILLSNDGKKWQQANVPVQVTLTNVFFLNEQLGWAVGHDATILHSQDGGLNWQVQQYLPLLEKPLFDIYFKNPQQGIAVGAYGQVFRTNDGGSTWQNEFHQEILLADDVEYLNELKAEDEAAYLDEITFILPHFNRLVQDGGSLFLLGETGLLAKSDDFGLTWQQFDNFYQGSFFSLARTKTGNVLVAGLRGHVFRSLNHGSQWDEVPTNTTALLNDIVFANDERIFILGNNGMLLISTDDGESFSKIPQQDGKTLIAGVWFKGQLIAVSDVGIKVVDLSQELEHHHHHH”, the protein production result is on record as “failed”.

Regarding “MRLTGEIMKIITCFKLVPEEQDIVVTPEYTLNFDNADAKISQFDLNAIEAASQLATDDDEIAALTVGGSLLQNSKVRKDVLSRGPHSLYMVQDAQLEHALPLDTAKALATAVEKIGFDLLIFGEGSGDLYAQQVGLLVGELLQLPVINAVSAIQRQGNTLVIERTLEDDVEVIELSVPAVLCVTSDINVPRIPSMKAILGAGKKPVNQWQASDIGWSQSAPLAELTGIRVPPQTKRKHIILDNDSPEAIAELAEHLKKALN”, the protein production entry was “failed”.

“MRLVVLSDIHGNLGAFEAVLADIATQDVDDIISLGDNVGYGPDPGPVLRLLRQRGIDSVLGNHEAAIADRRRRRRFNSQSREALDLTEAWLDADGRACIASMPPVLLRHGCRFVHGMPPDSPFTYLFEFMGRRLPKVFTLFAEALCFVGHTHDLEVLRCDETGAVASVLLPTASPDVAGQMPPGPLPGPSPDATLATSPGAQPEGLTLSTASPRVTVQTLVLDAGARHLVNVGSVGQPRDGDPRAKYVVWDDTARTLTVRRVAYDVAAAVRRFAEAGVAQRYIDRLG”: the protein production result is listed as “failed”.
